Series [1] is described as follows: Ex vivo cocaine degradation by CocE in human plasma (HPLC tandem MS).
The conditions of series [2]: cited from earlier work.
Series [3] is described as follows: Thermal stability: preincubation at 37° C., activity measured at RT (25° C.). Conditions: wild type. Type of series: physicochemical. The method, then:
Thermally stable mutant CocE polypeptides were identified by determining 1/2 of the mutant CocE polypeptides. Briefly, enzymes were preincubated at 37° C. for varying times. Activity measurements were determined at RT (25° C.). Mutant enzymes with 1/2 of greater than 12 minutes (the 1/2 of wild type CocE) were considered thermally stable (See, e.g., FIG. 27 and Table 7).

The subject of a further series is CocE antibodies. Briefly: Direct ELISA specific for CocE antibodies in serum of mice. Type of series: in vivo, mouse. The method, then: CocE can be used in incomplete Freund's adjuvant (IFA) to immunize mice (see Table 4). A direct ELISA specific for CocE antibodies was set up by a standard protocol. CocE was used (1 ug/ml) to coat a 96-well micro-titer plate using a borate buffered saline (1.5 M NaCl, 0.5 M H3BO3, 1.0 M NaOH) to resuspend the cocaine esterase (50 uL/well). The coating plates was left overnight at 4 C. The coating buffer was removed the following morning and the plates blocked with 2% normal goat serum in PBS for 1 hr at 37 C and washed 3 times. Serum from the various groups of mice was serially diluted in 50 μL of PBS in the wells in a range of 10^2 to […] and run in duplicate. The plates were covered and incubated for 30 minutes at 37 C. Subsequently, the plates were washed 3 times and 50 μL/well of Goat anti-mouse IgG peroxidase labeled antibody diluted 1:400. The plates were then washed 3 times and 100 μL peroxidase substrate solution (OPD dissolved in citratelphosphate buffer) was added to each well. After a 5-10 minute incubation (based upon color development in the positive controls) the reaction was stopped using 3M H2SO4 (50 μL/well). […] Positive controls were derived by immunizing Balb/c mice with 100 μg in 100 μL of Cocaine esterase emulsified in incomplete Freund's adjuvant […] by intraperitoneal (IP) injection. In Positive 1 group the serum was isolated from 2 week immunized mice. In Positive 2 group immunized mice were boosted using 100 μg in 100 μL by IP injection at 2 weeks post-primary immunization and the serum collected after an additional week (3 week post-primary).

Like-named read-outs stand apart in the source and are kept apart here.

B1: CocE: wild-type cocaine esterase of Rhodococcus sp. MB 1, SEQ ID NO: 1, Accession No. AF173165 (protein)
chain: MVDGNYSVASNVMVPMRDGVRLAVDLYRPDADGPVPVLLVRNPYDKFDVFAWSTQSTNWLEFVRDGYAVVIQDTRGLFASEGEFVPHVDDEADAEDTLSWILEQAWCDGNVGMFGVSYLGVTQWQAAVSGVGGLKAIAPSMASADLYRAPWYGPGGALSVEALLGWSALIGTGLITSRSDARPEDAADFVQLAAILNDVAGAASVTPLAEQPLLGRLIPWVIDQVVDHPDNDESWQSISLFERLGGLATPALITAGWYDGFVGESLRTFVAVKDNADARLVVGPWSHSNLTGRNADRKFGIAATYPIQEATTMHKAFFDRHLRGETDALAGVPKVRLFVMGIDEWRDETDWPLPDTAYTPFYLGGSGAANTSTGGGTLSTSISGTESADTYLYDPADPVPSLGGTLLFHNGDNGPADQRPIHDRDDVLCYSTEVLTDPVEVTGTVSARLFVSSSAVDTDFTAKLVDVFPDGRAIALCDGIVRMRYRETLVNPTLIEAGEIYEVAIDMLATSNVFLPGHRIMVQVSSSNFPKYDRNSNTGGVIAREQLEEMCTAVNRIHRGPEHPSHIVLPIIKR
modifications: Rhodococcus sp. MB1
In the case of B1, in series [1] (human plasma 37° C., 300 μM cocaine, 0.05 mg/ml CocE, within 1 min), the “decrease of cocaine levels compared with vehicle-treated plasma” value is “at least 100 fold”. Further, in series [1] (human plasma 37° C., 300 μM cocaine, 2-minute timepoint), the “cocaine level after esterase” value is given as “below 1 microM”. Further, the “cocaine concentration after esterase” value in series [1] (human plasma 37° C., 300 μM cocaine, within 1 min) was “approximately 2 μM”. Besides, in series [1] (in less than one minute (FIG. 15)), the “cocaine concentrations in serum metabolized” value is 150 fold. Further, the Kcat in series [2] (against (-) cocaine) is 7.8 s⁻¹. Besides, the Km in series [2] (against (-) cocaine) is 0.64 µM; in series [2] (purified enzyme, cocaine), 0.64 µM. Besides, in series [2] (purified enzyme, cocaine), the “kcal (Michaelis-Menten kinetics)” value is 7.2 s⁻¹. Also, in series [3], the “1/2 (t1/2) at 37° C.” value was 12 min. Also, the “Titer (log10 dilution +/− SE)” value with CocE antibodies (Challenged and Treated (3x), CocE given with cocaine) is 3.33 +/− 0.333; in the series with CocE antibodies (Challenged and Treated (4x), CocE given with cocaine) it was 3.5 +/− 0.5; with CocE antibodies (Positive 1 (n = 3) 2 weeks, Immunized (IFA/IP)), 5; in the series on CocE antibodies (Positive 2 (n = 3) 3 weeks, Immunized/Boost (IFA/IP)), 6. In the series on CocE antibodies (CocE i.v. during cocaine challenges), the antibody titers entry is recorded as “detectable but relatively low titers”. Moreover, the antibody titer was 10^6 in the series on CocE antibodies (CocE/IFA with an additional boost) and 10^5 with CocE antibodies (immunized once with CocE/IFA).

Source of the values: patent publication US9200265B2, “Anti-cocaine compositions and treatment” (priority 2006, dated 2015).
